B1: shCtrl: scrambled control shRNA not targeting any known mammalian gene, SEQ ID NO: 28 and 29 (nucleic acid)
chain 1: TACGAGCGAGGTGCCGATATTTCAAGAGAATATCGGCACCTCGCTCGTTTTTTTC
chain 2: TCGAGAAAAAAACGAGCGAGGTGCCGATATTCTCTTGAAATATCGGCACCTCGCTCGTA
B2: sh1: lentiviral shRNA targeting 14-3-3σ, SEQ ID NO: 24 (sense) and 25 (antisense) (nucleic acid)
sense: TCGAGACAACCTGACACTGTTTCAAGAGAACAGTGTCAGGTTGTCTCGTTTTTTC
antisense: TCGAGAAAAAACGAGACAACCTGACACTGTTCTCTTGAAACAGTGTCAGGTTGTCTCGA
B3: sh2: lentiviral shRNA targeting 14-3-3σ, SEQ ID NO: 26 (sense) and 27 (antisense) (nucleic acid)
sense: TGGAGAGAGCCAGTCTGATCTTCAAGAGAGATCAGACTGGCTCTCTCCTTTTTTC
antisense: TCGAGAAAAAAGGAGAGAGCCAGTCTGATCTCTCTTGAAGATCAGACTGGCTCTCTCCA

Tests used:
Format in all cases: cell-based, human
[1] = system: T3M4 cells; assay: in vitro wound-healing (migration) assay, shRNA infected T3M4 cells; conditions: serum free; 24 hours; percentage change in wound area
Description: To assess the motility properties, in vitro wound-healing assays or migration assays were performed. Cells were grown to confluence in 6-well tissue culture plates, serum starved overnight, and the monolayer was scratched with a 200 μL pipette tip generating two parallel wounds. The scratched wells were washed to remove cell debris and incubated for the next 24 hours in serum free media in the absence or presence 1 nmol/L EGF with or without the Src family kinase inhibitor PP2 (4-amino-5-(4-chlorophenyl)-7-(t-butyl)pyrazolo[3,4-d]pyrimidine) (Alexis, La Jolla, Calif.). To monitor cell migration, photographs were taken of each well at five marked locations under 40× magnification immediately after wounding (t0) and again 24 hours after wounding (t24), using an inverted microscope fitted with a digital camera (Nikon Diaphot 300, Nikon, Japan). The wound area of five matched pictures at t0 and t24 from each well were then measured using the ImageJ software (NIH, Bethedsa, Md.), and the percentage change in the wound area was calculated.

[2] = system: 14-3-3σ; assay: downregulation of 14-3-3σ by lentiviral shRNA in T3M4 cells (western blotting, Q-PCR); conditions: for 14-3-3σ levels: MOI of 40
[3] = system: T3M4 cells; assay: cisplatinum induced apoptosis, immunoblot of cleaved PARP and cleaved caspase-3, shRNA infected T3M4 cells; conditions: cisplatinum 10 νg/mL for 2, 6, or 24 hours
Description: Sham or 14-3-3σ transfected PANC-1 cells were incubated for 24 hours in complete medium in the absence or presence of 10 μg/mL of cisplatinum. Scrambled or 14-3-3σ specific shRNA infected T3M4 cells were incubated in complete medium for 24 hours that was supplemented with 10 μg/mL cisplatinum for the initial 2 or 6 hours, or the entire 24 hours. Both floating and adherent cells were then collected and lysed in the buffer containing protease inhibitors, subjected to 10% SDS-PAGE, and immunoblotted with specific antibodies against cleaved Poly (ADP-ribose) Polymerase (PARP) and cleaved caspase-3 (Cell Signaling Technology, Danvers, Mass.).

Molecule	basal motility of shRNA infected cells [1]	14-3-3σ levels [2]	sensitivity of shRNA infected cells to cisplatinum versus control cells [3]	sensitivity of sh2 infected cells to cisplatinum compared to sh1 [3]	knockdown of 14-3-3σ, sh2 relative to sh1 [2]
B1	20%	did not alter			
B2	20%	reduce	significantly more sensitive than control cells		
B3	20%	reduce	significantly more sensitive than control cells	relatively more sensitive	more effective than sh1

Source: patent publication US20110152358A1, “Compositions and Methods for Diagnosis and Treatment of Pancreatic Ductal Cancer” (priority 2008, published 2011)
